The record followed here is patent WO2014167826A1 (dated 2014).

For test [1], the target named is T1, p3-40.
T1 construct: also called Aβ17-40; 17-40
T1 peptide: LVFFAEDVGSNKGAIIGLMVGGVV
The experiment in a line: sandwich ELISA, 1A10 capture, HRP-2G2 detection. (ELISA stands for enzyme-linked immunosorbent assay.)

Test [2] has as its target T2, p3-42.
T2 construct: also called Aβ17-42; 17-42
T2 peptide: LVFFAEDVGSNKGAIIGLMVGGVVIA
The experiment in a line: sandwich ELISA, 44A3 capture, HRP-2G2 detection.

B1: 2G2 antibody (antibody, V domains shown)
VH: QVQLQQPGSELVRPGASVKLSCEASGYTFTSYWIHWVKQRPGQGLEWIGNIYPGSGDTNYDERFKSKATLTVDTSSNTAYMQLISLTSDDSAVYYCTRGKNWGQGTTLTVSS
VL: DIQMNQSPSSLSASLGDTITITCHASQNINVWLSWYQQKPGNIPRLLIYKVSNLHTGVPSRFSGSGSGTGFTLTISSLQPEDIATYYCQQGQSYPLTFGGGTKLEIR
notes: Used unlabelled in the Western blot and conjugated to horseradish peroxidase (HRP) as detection antibody in the sandwich ELISAs; only the CDRs are; also called clone 2G2; 2G2 monoclonal antibody
For B1, the binding result in test [1] and in test [2] was “binds” in each case.
